Consider four molecules from PMC9482650, “Quantitative fragmentomics allow affinity mapping of interactomes” (Nature Communications, 2022).

Among the targets are PREX1_1, Q8TCU6; MAGI1_3, Q96QZ7; NHERF2_1, Q15599; LMO7, Q8WWI1; PTPN13_2, Q12923; DLG5_2, Q8TDM6; PDZD9, Q8IXQ8; ARHGEF12, Q9NZN5-2; IL16_2, Q14005; CNKSR3, Q6P9H4.
What all share (assay): holdup assay
Design in all cases: key: below the threshold = too weak to quantify, mostly under pKd 3.1 to 4
Holding throughout (settings): plain residues with an end cap or a label only (N-terminal biotin on a linker: ttds)

In another experiment the target is T1, PDZD2_3, O15018.
T1 sequence (O15018 581-682, limits assumed, looked up): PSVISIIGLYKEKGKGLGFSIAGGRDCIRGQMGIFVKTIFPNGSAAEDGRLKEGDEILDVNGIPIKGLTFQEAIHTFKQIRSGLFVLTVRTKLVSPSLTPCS

In another experiment the target is T2, APBA3_2, O96018.
T2 sequence (O96018 480-570, limits assumed, looked up): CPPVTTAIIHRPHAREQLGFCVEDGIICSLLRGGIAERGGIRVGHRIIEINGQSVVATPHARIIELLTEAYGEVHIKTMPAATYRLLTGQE

In a further experiment the target is T3, PDZD2_1, O15018.
T3 sequence (O15018 80-192, limits assumed, looked up): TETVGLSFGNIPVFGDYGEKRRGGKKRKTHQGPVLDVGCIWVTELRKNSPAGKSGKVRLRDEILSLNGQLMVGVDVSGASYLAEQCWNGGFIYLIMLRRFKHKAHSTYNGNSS

For a further experiment, the target named is T4, PTPN13_4, Q12923.
T4 sequence (Q12923 1783-1878, limits assumed, looked up): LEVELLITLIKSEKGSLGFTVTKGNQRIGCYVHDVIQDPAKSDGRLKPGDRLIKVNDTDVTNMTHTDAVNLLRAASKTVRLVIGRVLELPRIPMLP

Another experiment addresses T5, USH1C_2, Q9Y6N9.
T5 sequence (Q9Y6N9 206-303, limits assumed, looked up): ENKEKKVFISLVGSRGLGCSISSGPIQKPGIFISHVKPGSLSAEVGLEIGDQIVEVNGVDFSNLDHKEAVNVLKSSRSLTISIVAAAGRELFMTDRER

A further experiment concerns the target T6, TJP3_2, O95049.
T6 sequence (O95049 190-282, limits assumed, looked up): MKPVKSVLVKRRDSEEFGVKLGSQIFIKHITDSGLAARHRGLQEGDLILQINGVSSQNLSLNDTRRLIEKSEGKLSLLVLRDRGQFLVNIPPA

A further experiment has as its target T7, DVL1, O14640.
T7 sequence (O14640 246-333, limits assumed, looked up): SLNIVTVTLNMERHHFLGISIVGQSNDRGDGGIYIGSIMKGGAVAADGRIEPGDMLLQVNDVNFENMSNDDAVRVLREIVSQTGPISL

A further experiment concerns the target T8, PTPN13_5, Q12923.
T8 sequence (Q12923 1877-1975, limits assumed, looked up): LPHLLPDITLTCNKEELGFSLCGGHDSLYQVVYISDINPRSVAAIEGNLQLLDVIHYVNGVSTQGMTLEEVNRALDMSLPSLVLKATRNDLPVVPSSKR

A further experiment addresses T9, NHERF1_2, O14745.
T9 sequence (O14745 149-244, limits assumed, looked up): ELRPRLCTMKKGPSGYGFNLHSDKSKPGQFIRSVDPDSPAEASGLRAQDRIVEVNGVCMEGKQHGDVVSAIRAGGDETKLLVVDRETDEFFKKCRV

In a further experiment the target is T10, NHERF3_2, Q5T2W1.
T10 sequence (Q5T2W1 129-225, limits assumed, looked up): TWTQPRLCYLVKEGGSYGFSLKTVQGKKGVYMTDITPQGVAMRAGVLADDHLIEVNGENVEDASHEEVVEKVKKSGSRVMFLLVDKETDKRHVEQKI

Another experiment deals with T11, SNTG1, Q9NSN8.
T11 sequence (Q9NSN8 52-150, limits assumed, looked up): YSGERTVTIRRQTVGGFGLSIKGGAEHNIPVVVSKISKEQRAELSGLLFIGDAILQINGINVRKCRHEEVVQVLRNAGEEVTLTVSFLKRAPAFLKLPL

The next experiment has as its target T12, SHANK3, Q9BYB0.
T12 sequence (Q9BYB0 641-750, limits assumed, looked up): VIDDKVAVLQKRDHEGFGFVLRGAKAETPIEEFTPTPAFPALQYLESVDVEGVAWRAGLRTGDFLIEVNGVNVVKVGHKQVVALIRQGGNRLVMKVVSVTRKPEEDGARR

Another experiment deals with T13, SHROOM3, Q8TF72.
T13 sequence (Q8TF72 20-120, limits assumed, looked up): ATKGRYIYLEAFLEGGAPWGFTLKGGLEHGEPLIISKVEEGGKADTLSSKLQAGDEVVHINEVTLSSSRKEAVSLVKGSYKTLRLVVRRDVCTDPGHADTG

Sequence of PDZD9, Q8IXQ8 (Q8IXQ8 23-120): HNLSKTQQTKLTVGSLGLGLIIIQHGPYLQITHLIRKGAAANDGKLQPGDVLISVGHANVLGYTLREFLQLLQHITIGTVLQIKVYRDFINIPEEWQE
Sequence of IL16_2, Q14005 (Q14005 350-450): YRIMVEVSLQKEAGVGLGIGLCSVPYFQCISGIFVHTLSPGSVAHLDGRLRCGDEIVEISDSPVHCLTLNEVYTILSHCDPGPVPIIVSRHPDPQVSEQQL
Sequence of DLG5_2, Q8TDM6 (Q8TDM6 714-800): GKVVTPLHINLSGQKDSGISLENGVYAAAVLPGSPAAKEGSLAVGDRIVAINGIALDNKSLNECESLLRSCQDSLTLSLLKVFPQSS
Sequence of ARHGEF12, Q9NZN5-2 (Q9NZN5 other isoform, or with tags, fused parts or gaps): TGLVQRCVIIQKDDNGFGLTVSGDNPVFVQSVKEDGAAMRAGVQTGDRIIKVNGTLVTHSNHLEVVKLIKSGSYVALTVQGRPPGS
Sequence of PREX1_1, Q8TCU6 (Q8TCU6 608-718): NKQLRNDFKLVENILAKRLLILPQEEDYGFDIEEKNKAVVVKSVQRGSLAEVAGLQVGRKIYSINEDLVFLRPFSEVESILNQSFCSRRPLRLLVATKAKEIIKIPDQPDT
Sequence of LMO7, Q8WWI1 (Q8WWI1 1037-1138): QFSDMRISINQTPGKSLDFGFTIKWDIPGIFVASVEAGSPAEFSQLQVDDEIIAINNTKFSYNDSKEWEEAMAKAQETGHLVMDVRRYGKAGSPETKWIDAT
Sequence of MAGI1_3, Q96QZ7 (Q96QZ7 638-725): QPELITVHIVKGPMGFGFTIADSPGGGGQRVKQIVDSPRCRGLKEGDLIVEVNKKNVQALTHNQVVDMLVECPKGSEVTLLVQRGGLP
Sequence of NHERF2_1, Q15599 (Q15599 9-91): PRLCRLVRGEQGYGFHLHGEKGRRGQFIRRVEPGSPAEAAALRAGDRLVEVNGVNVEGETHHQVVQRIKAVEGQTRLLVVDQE
Sequence of PTPN13_2, Q12923 (Q12923 1363-1462): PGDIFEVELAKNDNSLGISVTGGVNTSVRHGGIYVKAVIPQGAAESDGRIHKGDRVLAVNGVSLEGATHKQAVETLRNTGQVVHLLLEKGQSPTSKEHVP
Sequence of CNKSR3, Q6P9H4 (Q6P9H4 203-303): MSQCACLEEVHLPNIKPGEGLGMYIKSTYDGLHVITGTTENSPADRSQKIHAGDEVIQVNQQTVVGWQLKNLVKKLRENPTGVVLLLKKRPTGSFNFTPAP

B1: PBK, Q96KB5 (peptide)
chain: HIVEALETDV
The pKd is the Kd on a negative log10 scale, so that one unit is a factor of ten. For the molecule B1, the pKd result in the experiment with PREX1_1, Q8TCU6 was “below the threshold”; with MAGI1_3, Q96QZ7, 4.43; with PDZD2_3, O15018 it was “below the threshold”; with APBA3_2, O96018, “below the threshold”; with NHERF2_1, Q15599, “below the threshold”; with PDZD2_1, O15018, “below the threshold”. Moreover, the pKd entry in the experiment with PTPN13_4, Q12923 is “below the threshold”; in the experiment with LMO7, Q8WWI1, “below the threshold”; with USH1C_2, Q9Y6N9, “below the threshold”; in the experiment with PTPN13_2, Q12923, “below the threshold”; with DLG5_2, Q8TDM6 it was “below the threshold”; with PDZD9, Q8IXQ8 it was “below the threshold”. The pKd result was “below the threshold” with TJP3_2, O95049; “below the threshold” with DVL1, O14640; “below the threshold” with PTPN13_5, Q12923; 4.23 with ARHGEF12, Q9NZN5-2; “below the threshold” in the experiment with NHERF1_2, O14745; “below the threshold” with NHERF3_2, Q5T2W1. Besides, the pKd entry was “below the threshold” with IL16_2, Q14005; 5.68 with SNTG1, Q9NSN8; “below the threshold” with SHANK3, Q9BYB0; “below the threshold” with CNKSR3, Q6P9H4; “below the threshold” in the experiment with SHROOM3, Q8TF72.

B2: HTLV1-TAX1, P03409 (peptide)
chain: SEKHFRETEV
On to B2, for which the pKd result was “below the threshold” with PREX1_1, Q8TCU6; 4.75 in the experiment with MAGI1_3, Q96QZ7; “below the threshold” with PDZD2_3, O15018; “below the threshold” with APBA3_2, O96018; 3.95 in the experiment with NHERF2_1, Q15599; “below the threshold” in the experiment with PDZD2_1, O15018. Moreover, the pKd entry was “below the threshold” with PTPN13_4, Q12923; “below the threshold” with LMO7, Q8WWI1; “below the threshold” with USH1C_2, Q9Y6N9; “below the threshold” with PTPN13_2, Q12923; 5.06 in the experiment with DLG5_2, Q8TDM6; “below the threshold” with PDZD9, Q8IXQ8. The pKd entry was “below the threshold” in the experiment with TJP3_2, O95049; “below the threshold” with DVL1, O14640; “below the threshold” in the experiment with PTPN13_5, Q12923; 3.81 in the experiment with ARHGEF12, Q9NZN5-2; “below the threshold” with NHERF1_2, O14745; “below the threshold” in the experiment with NHERF3_2, Q5T2W1. Further, the pKd entry in the experiment with IL16_2, Q14005 is “below the threshold”; with SNTG1, Q9NSN8, 5.43; with SHANK3, Q9BYB0, “below the threshold”; with CNKSR3, Q6P9H4, “below the threshold”; with SHROOM3, Q8TF72, “below the threshold”.

B3: SLCO1C1, Q9NYB5 (peptide)
chain: NYWPGKETQL
Regarding B3, the pKd result with PREX1_1, Q8TCU6 is “below the threshold”; with MAGI1_3, Q96QZ7 it was “below the threshold”; with PDZD2_3, O15018 it was “below the threshold”; with APBA3_2, O96018, “below the threshold”; with NHERF2_1, Q15599, “below the threshold”; with PDZD2_1, O15018 it was “below the threshold”. Moreover, the pKd entry with PTPN13_4, Q12923 is recorded as “below the threshold”; in the experiment with LMO7, Q8WWI1, “below the threshold”; with USH1C_2, Q9Y6N9, “below the threshold”; in the experiment with PTPN13_2, Q12923 it was “below the threshold”; with DLG5_2, Q8TDM6, “below the threshold”; in the experiment with PDZD9, Q8IXQ8, “below the threshold”. Besides, the pKd result was “below the threshold” in the experiment with TJP3_2, O95049; “below the threshold” in the experiment with DVL1, O14640; “below the threshold” with PTPN13_5, Q12923; 4.94 with ARHGEF12, Q9NZN5-2; “below the threshold” with NHERF1_2, O14745; “below the threshold” with NHERF3_2, Q5T2W1. For the same molecule, the pKd result with IL16_2, Q14005 was “below the threshold”; in the experiment with SNTG1, Q9NSN8, 5.39; in the experiment with SHANK3, Q9BYB0, “below the threshold”; with CNKSR3, Q6P9H4, “below the threshold”; with SHROOM3, Q8TF72 it was “below the threshold”.

B4: ARHGEF16, Q5VV41 (peptide)
chain: MERLRVETDV
Take B4: the pKd result with PREX1_1, Q8TCU6 is reported as “below the threshold”; with MAGI1_3, Q96QZ7, “below the threshold”; in the experiment with PDZD2_3, O15018 it was “below the threshold”; with APBA3_2, O96018, “below the threshold”; in the experiment with NHERF2_1, Q15599 it was “below the threshold”; with PDZD2_1, O15018, “below the threshold”. In addition, the negative logarithm of the Kd (pKd) result is listed as “below the threshold” in the experiment with PTPN13_4, Q12923; “below the threshold” with LMO7, Q8WWI1; “below the threshold” with USH1C_2, Q9Y6N9; “below the threshold” in the experiment with PTPN13_2, Q12923; “below the threshold” with DLG5_2, Q8TDM6; “below the threshold” with PDZD9, Q8IXQ8. The pKd result with TJP3_2, O95049 was “below the threshold”; with DVL1, O14640, “below the threshold”; in the experiment with PTPN13_5, Q12923, “below the threshold”; with ARHGEF12, Q9NZN5-2 it was 4.22; in the experiment with NHERF1_2, O14745, “below the threshold”; in the experiment with NHERF3_2, Q5T2W1, “below the threshold”. In addition, the pKd entry was “below the threshold” with IL16_2, Q14005; 4.89 with SNTG1, Q9NSN8; “below the threshold” with SHANK3, Q9BYB0; “below the threshold” in the experiment with CNKSR3, Q6P9H4; “below the threshold” with SHROOM3, Q8TF72.
